This is an account of results in publication PMC9328677 (2021).

B1: APLF^AD double anchor mutant Y462A/F468A (DA-34) (domain or fragment)
chain: DEDNDNVGQPNEADLNDSALDDEEEDYEPTDEDSDWEPGKEDEEKEDVEELLKEAKRFMKRK
B2: SUMO-APLF^AD quadruple anchor mutant Y462A/F468A/Y476A/W485A (QA) (domain or fragment)
chain: B1 chain with Y27A, W36A
B3: APLF^AD double anchor mutant Y476A/W485A (DA-AB) (domain or fragment)
chain: B1 chain with A13Y, A19F, Y27A, W36A
B4: APLF^AD F468A (protein)
chain: B1 chain with A13Y
B5: acidic domain of Homo sapiens APLF (APLF^AD, residues 450 to 511), wild type (domain or fragment)
chain: B1 chain with A13Y, A19F
B6: APLF^AD mutant of Y462 tested by ITC on H3-H4 (domain or fragment)
chain: B1 chain with A19F

Residue numbers refer to the chain shown, from its start. Numbers in names are those of the source.

The target in one assay is stoichiometric mixture of full-length Drosophila melanogaster H2A-H2B and H3-H4 (octamer-mix) (Drosophila melanogaster, UniProt P84051 1-124; P02283 1-123; P02299 1-136; P84040 1-103). The experiment in a line: ITC.
For the molecule LDEDNDNVGQPNEADLNDSALDDEEEDAEPTDEDSDAEPGKE (domain or fragment) [SUMO-APLF^AD truncated QA mutant (QA-Δ, residues 449 to 490)], the Kd – broadly, a measure of binding affinity in units of concentration – is 1220 nM.

Turning to B1, the Kd is 671 nM.

Regarding B2, the Kd was determined as 794 nM.

Turning to B3, the Kd turned out to be 317 nM.

Consider GLDEDNDNVGQPNEYDLNDSFLDDEEEDYEPTDEDSDWEPGKE (domain or fragment) [truncated APLF^AD construct corresponding to residues 449 to 490 (APLF^AD-Δ)], for which the Kd worked out at 90 nM.

Another assay deals with T1, Drosophila melanogaster histone H3-H4 complex, full-length (Drosophila melanogaster, UniProt P02299 1-136; P84040 1-103). Briefly: ITC. A general note: Isothermal titration calorimetry measures the heat released or taken up as one component is titrated into another.
For the molecule B1, the affinity, expressed as Kd, was 7630 nM.

Molecule B4 came in with a Kd of 980 nM.

B5 displayed a Kd of 790 nM.

In turn, B6 came in with a Kd of 3090 nM.

Molecule B3 came in with a Kd of 2050 nM.

The next assay deals with T1, Drosophila melanogaster histone H3-H4 …. The experiment in a line: ITC. The source holds these as a separate data set.
B5: the Kd was 552 nM.
